Measurements published in US12325747 (University of Texas, dated 2025).
Where two headings read alike, the source gives them in different places.

Assays:
mouse PD-L1 protein [1] = biological target: T1, mouse PD-L1 protein (mouse, UniProt Q9EP73 19-238, limits assumed); assay: lower panel, MFI against Ab (nM): flow cytometry on CHO cells with murine PD-L1. The panel has no title; murine PD-L1 follows from paragraph 175
T1 construct: also called murine PD-L1
Method: (§1) Antibody Activity. Varying concentrations of PD-L1 antibodies, with human IgG1 backbones, were added to CHO cells expressing either human or murine PD-L1 (CHO-PD-L1 cells). Binding was detected by addition of anti-human IgG1 secondary antibody conjugated to phycoerythrin. FACS analysis was performed, detecting phycoerythrin to determine fluorescence activity at a variety of antibody concentrations. EC50 was calculated using GraphPad Prism® software.

PD-L1 on CHO-PD-L1 cells [2] = biological target: T2, PD-L1 on CHO-PD-L1 cells (human, UniProt Q9NZQ7 19-290); assay: cell-based or functional assay
T2 sequence (Q9NZQ7 19-290 limits assumed): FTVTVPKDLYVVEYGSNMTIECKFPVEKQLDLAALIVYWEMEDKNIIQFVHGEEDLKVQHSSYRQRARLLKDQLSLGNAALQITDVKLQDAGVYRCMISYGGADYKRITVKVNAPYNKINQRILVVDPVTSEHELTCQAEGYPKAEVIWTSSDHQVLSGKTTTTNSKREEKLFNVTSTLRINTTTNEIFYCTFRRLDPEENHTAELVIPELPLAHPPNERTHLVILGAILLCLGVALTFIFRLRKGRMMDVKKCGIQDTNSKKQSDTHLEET

PD-L1 on CHO-PD-L1 cells [3] = biological target: T2, PD-L1 on CHO-PD-L1 cells; assay: upper panel, MFI against Ab (nM): flow cytometry on CHO cells with PD-L1, anti-human IgG1-PE secondary. The panel has no title; human PD-L1 follows from paragraph 175 (all three bind human PD-L1)
Method: as §1

Human PD-L1-HIS [4] = biological target: T3, Human PD-L1-HIS (human, UniProt Q9NZQ7 19-238); assay: Octet tandem competition on HIS-tagged human PD-L1; competitor Durvalumab
T3 construct: also called HIS-tagged protein (human PD-L1)
T3 sequence (Q9NZQ7 19-238 limits assumed): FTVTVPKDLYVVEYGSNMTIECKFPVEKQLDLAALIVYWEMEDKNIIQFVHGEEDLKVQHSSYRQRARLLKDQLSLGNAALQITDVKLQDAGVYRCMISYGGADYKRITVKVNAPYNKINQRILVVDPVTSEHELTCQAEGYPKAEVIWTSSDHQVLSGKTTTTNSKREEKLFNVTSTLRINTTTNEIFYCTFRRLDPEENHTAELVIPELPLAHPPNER
Method: (§2) Epitope binning of PD-L1 antibodies. Binding specificity of a variety of PD-L1 antibodies were compared using a binding competition assay conducted using the ForteBio Octet® platform. Target HIS-tagged protein (human PD-L1) is loaded onto pre-charged Nickel NTA Biosensors at 1 μg/mL. The first Ab1 is saturated on the target-loaded biosensor at 100 nM, and a reference (bufer only) well is included to determine maximal Ab2 binding signal. The second Ab2 is screened for binding signal also at 100 nM, and Ab1 is included to determine background self-blocking signal. Data Analysis HT 9.0 software is used to generate a matrix of raw signal response of Ab2 binding that is then transformed to be expressed as a percentage of the unblocked Ab2 binding signal. Less than 15% response is considered competitive blocking.

Human PD-L1-HIS [5] = biological target: T3, Human PD-L1-HIS; assay: Octet tandem competition on HIS-tagged human PD-L1; competitor Avelumab
Method: as §2

Human PD-L1-HIS [6] = biological target: T3, Human PD-L1-HIS; assay: ForteBio Octet BLI; IgG on AHQ sensors, 100 nM antigen; column head says Avid
Method: (§3) ForteBio K_D measurements—ForteBio affinity measurements were performed on an Octet RED384 generally as previously described (see, e.g., Estep et al., Mabs 5(2), 270-278 (2013)). Briefly, ForteBio affinity measurements were performed by loading IgGs on-line onto AHQ sensors. Sensors were equilibrated off-line in assay buffer for 30 min and then monitored on-line for 60 seconds for baseline establishment. Sensors with loaded IgGs were exposed to 100 nM antigen for 3 minutes, and afterwards were transferred to assay buffer for 3 min for off-rate measurement. For monovalent affinity assessment Fabs were used instead of IgGs. For this assessment the unbiotinylated Fc fusion antigen was loaded on-line onto the AHQ sensors. Sensors were equilibrated off-line in assay buffer for 30 min and then monitored on-line for 60 seconds for baseline establishment. Sensors with loaded antigen were exposed to 100 nM Fab for 3 minutes, and afterwards they were transferred to assay buffer for 3 min for off-rate measurement. All kinetics were analyzed using the 1:1 binding model.

Cyno PD-L1-Fc = Cyno PD-L1-Fc (cyno, UniProt G7PSE7 19-238); assay: ForteBio Octet BLI; IgG on AHQ sensors, 100 nM antigen; avid
Cyno PD-L1-Fc, sequence (G7PSE7 entry or part of it limits assumed): as the sequence (Q9NZQ7 19-238 limits assumed) above, with A33T, A34S, S62N, R68Q, Q82R, F173L, T185A, T192I, H215L counted along it
Method: as §3

Mouse PD-L1-Fc = biological target: T4, Mouse PD-L1-Fc (mouse, UniProt Q9EP73 19-238, limits assumed); assay: as above
T4 construct: not shown: Fc part, not described
T4 sequence (Q9EP73 19-238 limits assumed): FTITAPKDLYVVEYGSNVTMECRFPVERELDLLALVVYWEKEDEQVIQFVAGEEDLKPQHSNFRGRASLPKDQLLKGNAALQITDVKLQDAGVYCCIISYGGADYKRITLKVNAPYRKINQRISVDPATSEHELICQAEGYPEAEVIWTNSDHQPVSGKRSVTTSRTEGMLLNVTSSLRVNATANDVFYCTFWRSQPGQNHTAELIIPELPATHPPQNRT
Method: as §3

Human PD-L1-Fc [7] = biological target: T5, Human PD-L1-Fc (human, UniProt Q9NZQ7 19-238); assay: as above
T5 construct: also called Fc fusion antigen; not shown: Fc part, not described
T5 sequence (Q9NZQ7 19-238 limits assumed): as the sequence (Q9NZQ7 19-238 limits assumed) above
Method: as §3

Human PD-L1-HIS [8] = biological target: T3, Human PD-L1-HIS; assay: Octet tandem competition on HIS-tagged human PD-L1; competitor Atezolizumab
Method: as §2

Human PD-L1-Fc [9] = biological target: T5, Human PD-L1-Fc; assay: ForteBio Octet BLI; Fc fusion antigen on AHQ sensors, 100 nM Fab; monovalent
Method: as §3

PD-L1 on CHO-PD-L1 cells [10] = biological target: T2, PD-L1 on CHO-PD-L1 cells; assay: cell-based or functional assay; remark: listed apart in the source
mouse PD-L1 protein [11] = biological target: T1, mouse PD-L1 protein; assay: lower panel, MFI against Ab (nM): flow cytometry on CHO cells with murine PD-L1, anti-human IgG1-PE secondary. The panel has no title; murine PD-L1 follows from paragraph 175 (only ADI-20227 binds murine PD-L1 well)
Method: as §1

Human PD-L1-Fc [12] = biological target: T5, Human PD-L1-Fc; assay: ForteBio Octet BLI (row ForteBio-KD); antigen and unit inferred, taken from Table 5
PD-L1 on CHO-PD-L1 cells [13] = biological target: T2, PD-L1 on CHO-PD-L1 cells; assay: cell-based or functional assay; remark: listed apart in the source

T1 sequence (Q9EP73 19-238 limits assumed): as the sequence (Q9EP73 19-238 limits assumed) above

B1: ADI-20799 (antibody, human IgG1, V domains shown)
VH: QVQLVQSGAEVKKPGASVKVSCKASGYTFTGVYMHWVRQAPGQGLEWMGGIFPIGGTANYAQKFQGRVTITADESTSTAYMELSSLRSEDTAVYYCARDRTSGALYWGQGTLVTVSS
VL: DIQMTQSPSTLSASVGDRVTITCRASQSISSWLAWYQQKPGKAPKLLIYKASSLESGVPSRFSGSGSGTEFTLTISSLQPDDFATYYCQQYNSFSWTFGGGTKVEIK
binding result (mouse PD-L1 protein [1]): no binding (tested: about 700 nM) | EC50 (read off the curve) (PD-L1 on CHO-PD-L1 cells [2]): ~0.5 nM | EC50 (PD-L1 on CHO-PD-L1 cells [3]): 1.31 nM

B2: ADI-16403 (antibody, human IgG1, V domains shown)
VH: EVQLVESGGGLVQPGGSLRLSCAASGFTFSSYWMSWVRQAPGKGLEWVANIKSDGSEKYYVDSVKGRFTISRDNAKNSLYLQMNSLRAEDTAVYYCARVTYWADYMDVWGKGTTVTVSS
VL: DIQMTQSPSTLSASVGDRVTITCRASQSISSWLAWYQQKPGKAPKLLIYKASSLESGVPSRFSGSGSGTEFTLTISSLQPDDFATYYCQQSGSLPPTFGGGTKVEIK
notes: Tested as IgG; also called PD-L1-31; clone family 35
percentage of the unblocked Ab2 binding signal (Human PD-L1-HIS [4]): 1.03% | percentage of the unblocked Ab2 binding signal (Human PD-L1-HIS [5]): 2.39% | EC50 (read off the curve) (PD-L1 on CHO-PD-L1 cells [2]): ~2 nM | Kd (Human PD-L1-HIS [6]): 0.328 nM | Kd (Cyno PD-L1-Fc): 0.792 nM | binding result (Mouse PD-L1-Fc): no binding (tested: 100 nM) | Kd (Human PD-L1-Fc [7]): 0.317 nM | percentage of the unblocked Ab2 binding signal (Human PD-L1-HIS [8]): 0.75%

B3: ADI-16403 Fab (Fab, V domains shown)
VH: B2 VH
VL: B2 VL
notes: also called Fab of ADI-16403
Kd (Human PD-L1-Fc [9]): 0.935 nM

B4: ADI-20803 (antibody, human IgG1, V domains shown)
VH: QVQLVQSGAEVKKPGSSVKVSCKASGGTFRLYAISWVRQAPGQGLEWMGSIIPGFGSANYAQKFQGRVTITADESTSTAYMELSSLRSEDTAVYYCARDGGGGTSAYSFDPWGQGTLVTVSS
VL: EIVLTQSPATLSLSPGERATLSCRASQSVSSYLAWYQQKPGQAPRLLIYDASNRATGIPARFSGSGSGTDFTLTISSLEPEDFAVYYCQQSINFPYTFGGGTKVEIK
notes: Tested as IgG; also called PDL1-1-12; PLD1-1-12
percentage of the unblocked Ab2 binding signal (Human PD-L1-HIS [4]): 2.38% | percentage of the unblocked Ab2 binding signal (Human PD-L1-HIS [5]): 3.14% | Kd (Human PD-L1-HIS [6]): 0.0092 nM | Kd (Cyno PD-L1-Fc): 0.196 nM | Kd (Mouse PD-L1-Fc): 5.65 nM | Kd (Human PD-L1-Fc [7]): 0.188 nM | EC50 (read off the curve) (PD-L1 on CHO-PD-L1 cells [10]): ~3 nM | EC50 (PD-L1 on CHO-PD-L1 cells [3]): 0.7 nM | percentage of the unblocked Ab2 binding signal (Human PD-L1-HIS [8]): 1.86%

B5: ADI-20803 Fab (Fab, V domains shown)
VH: B4 VH
VL: B4 VL
notes: also called Fab of ADI-20803
Kd (Human PD-L1-Fc [9]): 0.226 nM

B6: ADI-20227 (antibody, human IgG1, V domains shown)
VH: QVQLQESGPGLVKPSQTLSLTCTVSGGSIVSGGLYWSWIRQHPGKGLEWIGYIYYAGVTYYNPSLKSRVTISVDTSKNQFSLKLSSVTAADTAVYYCARGPRMGLAGMDVWGQGTTVTVSS
VL: DIQMTQSPSSVSASVGDRVTITCRASQGISSWLAWYQQKPGKAPKLLIYAASSLQSGVPSRFSGSGSGTDFTLTISSLQPEDFATYYCQQANSFPITFGGGTKVEIK
notes: Tested as IgG; also called PD-L1-C1-2; clone family cLC
percentage of the unblocked Ab2 binding signal (Human PD-L1-HIS [4]): 0.65% | EC50 (mouse PD-L1 protein [11]): 1.13 nM | percentage of the unblocked Ab2 binding signal (Human PD-L1-HIS [5]): 0.37% | Kd (Cyno PD-L1-Fc): 0.192 nM | Kd (Mouse PD-L1-Fc): 0.101 nM | Kd (Human PD-L1-Fc [7]): 0.179 nM | EC50 (PD-L1 on CHO-PD-L1 cells [3]): 1.12 nM | Kd (Human PD-L1-Fc [12]): 0.179 nM | EC50 for restoration of PD-L1:PD-1 repressed Jurkat T cell activity (row label IC50) (PD-L1 on CHO-PD-L1 cells [13]): 0.295 nM | percentage of the unblocked Ab2 binding signal (Human PD-L1-HIS [8]): -0.52%

B7: ADI-20227 Fab (Fab, V domains shown)
VH: B6 VH
VL: B6 VL
Kd (Human PD-L1-Fc [9]): 0.915 nM
